We go through 1 substance from doi:10.1101/2020.12.21.423864.

This assay addresses Cadherin-11 extracellular domain 1 (Cad11-EC1), wild type, residues 1-98. As to the kind of experiment: NMR.

The term stoichiometry N denotes a count of units in the complex or per binding partner.

Substance “Cadherin-11 extracellular domain 1 (Cad11-EC1), wild type, residues 1-98 (domain or fragment)” showed a stoichiometry N of 2.
